Data as given in patent CN113372445A.

Columns and labels:
人PD-1蛋白 (human) [1] = molecular target: 人PD-1蛋白 (human) (UniProt Q15116); test: competition ELISA: human PD-1 coated, antibody titrated together with biotin-labelled PD-L1 (competitor)
人PD-1蛋白 (human) [2] = molecular target: 人PD-1蛋白 (human) (UniProt Q15116); test: BLI (ForteBio), antibody loaded on sensor, PD-1 protein 100-6.25 nM in solution
[3] = molecular target: PD-1 on GS-J2/PD-1 cells (human) (UniProt Q15116); test: cell-based or functional assay
Chain of PD-1 on GS-J2/PD-1 cells (human) (Q15116 25-288 limits assumed): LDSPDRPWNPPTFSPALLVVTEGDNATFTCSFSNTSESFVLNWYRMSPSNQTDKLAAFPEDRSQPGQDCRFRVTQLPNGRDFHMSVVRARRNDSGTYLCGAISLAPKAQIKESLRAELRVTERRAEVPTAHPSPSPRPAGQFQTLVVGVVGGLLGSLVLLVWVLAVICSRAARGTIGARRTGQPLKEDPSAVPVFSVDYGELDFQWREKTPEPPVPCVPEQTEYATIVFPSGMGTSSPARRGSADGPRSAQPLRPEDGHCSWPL

Chain of 人PD-1蛋白 (human) (Q15116 25-167 limits assumed): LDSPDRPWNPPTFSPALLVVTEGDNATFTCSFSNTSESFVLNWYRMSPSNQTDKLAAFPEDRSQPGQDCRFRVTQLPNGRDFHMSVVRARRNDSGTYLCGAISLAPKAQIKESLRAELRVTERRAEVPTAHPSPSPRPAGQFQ

| EC50 (人PD-1蛋白 (human) [1]) | Kd (人PD-1蛋白 (human) [2]) | koff (人PD-1蛋白 (human) [2]) | kon (人PD-1蛋白 (human) [2]) | EC50(nM), luciferase reporter (RLU, 激活百分比) in GS-J2/PD-1 cells co-cultured with GS-C2/PD-L1 cells [3] | Substance |
| --- | --- | --- | --- | --- | --- |
| 110 nM | 1.01 nM | 0.000286 s⁻¹ | 283000 M⁻¹ s⁻¹ | 0.142 nM | Keytruda (antibody) |
| 175 nM | 1.63 nM | – | – | – | Opdivo (antibody) |
